Drawing on publication PMC9251408 (2022), this text covers Kd for 2 molecules.

Assay [1] concerns the target T1, IL-10 receptor alpha (Mus musculus, UniProt Q61727).
T1 chain: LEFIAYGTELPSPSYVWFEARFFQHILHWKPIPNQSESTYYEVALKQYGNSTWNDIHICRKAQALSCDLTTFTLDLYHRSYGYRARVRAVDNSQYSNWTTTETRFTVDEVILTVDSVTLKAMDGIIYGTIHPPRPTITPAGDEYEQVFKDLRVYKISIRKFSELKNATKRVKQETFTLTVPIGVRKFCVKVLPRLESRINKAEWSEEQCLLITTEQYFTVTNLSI

The target in assay [2] is T2, IL-10 receptor alpha (Homo sapiens, UniProt Q13651).
T2 chain: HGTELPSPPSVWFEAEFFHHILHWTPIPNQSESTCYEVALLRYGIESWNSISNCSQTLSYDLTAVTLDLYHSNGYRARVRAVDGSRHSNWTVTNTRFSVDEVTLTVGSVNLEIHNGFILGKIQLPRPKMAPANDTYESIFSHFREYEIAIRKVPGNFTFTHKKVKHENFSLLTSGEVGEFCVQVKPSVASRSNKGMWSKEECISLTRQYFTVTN

B1: mFc-mIL-10 (mouse IL-10 mouse Fc-fusion) (protein)
chain: SRGQYSREDNNCTHFPVGQSHMLLELRTAFSQVKTFFQTKDQLDNILLTDSLMQDFKGYLGCQALSEMIQFYLVEVMPQAEKHGPEIKEHLNSLGEKLKTLRMRLRRCHRFLPCENKSKAVEQVKSDFNKLQDQGVYKAMNEFDIFINCIEAYMMIKMKS
modifications: IL-10 fused to C-terminus of effector-reduced mouse Fc via Gly-Ser linker
In the assay with IL-10 receptor alpha [1], B1 displayed a Kd of 3.2 nM.

B2: hFc-hIL-10 (human IL-10 human Fc-fusion) (protein)
chain: SPGQGTQSENSCTHFPGNLPNMLRDLRDAFSRVKTFFQMKDQLDNLLLKESLLEDFKGYLGCQALSEMIQFYLEEVMPQAENQDPDIKAHVNSLGENLKTLRLRLRRCHRFLPCENKSKAVEQVKNAFNKLQEKGIYKAMSEFDIFINYIEAYMTMKIRN
modifications: IL-10 fused to C-terminus of effector-reduced human Fc via Gly-Ser linker
Regarding B2, the Kd stood at 0.6 nM with IL-10 receptor alpha [2] and 2.9 nM with IL-10 receptor alpha [1].

A word on the Kd: it is the constant that tells how readily two partners part at equilibrium. A lower Kd goes with tighter binding.
